In patent US6322962A, “Sterol-regulated Site-1 protease and assays of modulators thereof” (Board of Regents, The University of Texas System, priority 1999, dated 2001):

Legend:
[1] = biological target: T1, purified S1P(983)-C (Cricetulus griseus, UniProt Q9Z2A8, T875N); assay: HPLC assay for S1P activity with 16-amino acid synthetic peptides; assay type: biochemical, hamster; details: 4 h, 37° C.
T1 construct: Truncated S1P (amino acids 1-983); GGR linker (NotI site); made in house; host or cells: SRD-12B cells (mutant CHO cells lacking S1P) stably transfected with pCMV-S1P(983)-Myc-His (TR-3117, 'S1P(983) cells'); secreted into the medium and purified on Ni-NTA
T1 sequence (Q9Z2A8 187-983 T875N): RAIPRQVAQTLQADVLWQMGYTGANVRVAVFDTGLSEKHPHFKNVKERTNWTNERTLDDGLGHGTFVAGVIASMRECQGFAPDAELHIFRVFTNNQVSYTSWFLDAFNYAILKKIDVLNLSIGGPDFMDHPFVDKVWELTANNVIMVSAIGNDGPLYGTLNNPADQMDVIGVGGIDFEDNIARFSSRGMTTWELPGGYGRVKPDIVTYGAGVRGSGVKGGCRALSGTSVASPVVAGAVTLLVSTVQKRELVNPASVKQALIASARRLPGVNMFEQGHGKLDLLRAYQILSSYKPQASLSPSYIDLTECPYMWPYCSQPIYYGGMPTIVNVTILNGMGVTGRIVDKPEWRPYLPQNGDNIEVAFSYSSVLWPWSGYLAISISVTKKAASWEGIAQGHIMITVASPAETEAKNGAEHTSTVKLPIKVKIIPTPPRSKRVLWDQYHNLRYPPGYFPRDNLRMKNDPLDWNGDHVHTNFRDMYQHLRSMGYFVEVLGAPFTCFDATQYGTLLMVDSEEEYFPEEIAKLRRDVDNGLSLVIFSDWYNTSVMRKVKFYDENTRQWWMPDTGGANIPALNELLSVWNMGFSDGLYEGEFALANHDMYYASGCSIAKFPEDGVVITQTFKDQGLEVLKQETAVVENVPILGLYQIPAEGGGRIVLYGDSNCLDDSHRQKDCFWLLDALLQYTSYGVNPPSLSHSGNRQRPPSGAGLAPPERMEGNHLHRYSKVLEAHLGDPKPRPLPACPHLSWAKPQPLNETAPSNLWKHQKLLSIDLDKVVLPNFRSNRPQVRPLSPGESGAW
Method: HPLC Assay for S1P Activity
Each reaction was carried out in a final volume of […] of assay buffer (see above) containing a 16-amino acid synthetic peptide (final concentration 300 μM); and 3 μg purified S1P(983)-C. After incubation for 4 h at 37° C., the reaction products were separated by reverse-phase HPLC on a 4.6×250-mm RP300 column using a Waters HPLC system. Chromatography was performed in 0.1% (v/v) trifluoroacetic acid at 0.75 ml/min. […] Peptide masses were measured by matrix-assisted laser desorption/ionization (MALDI) mass spectrometry using a Voyager DE time-of-flight mass spectrometer from PerSeptive Biosystems (Framingham, Mass.) with α-cyano-4-hydroxycinnamic acid (Aldrich Chemical, Dorset, UK) as the matrix.
The failure of S1P(983)-C to cleave the RSVL-MCA peptides (SEQ ID NO:11) might have been due to an inability of the enzyme to recognize the RSVL sequence (SEQ ID NO:11), or alternatively it might be due to the resistance of the peptide-MCA bond to cleavage. To distinguish between these possibilities, the inventors prepared 16-residue peptides composed of the amino acids surrounding the internal cleavage Site-B in S1P (i. e., RSLK, SEQ ID NO:18) or Site-1 in SREBP-2 (i. e., RSVL, SEQ ID NO:11). The peptides were incubated with or without purified S1P(983)-C, and the products were separated by HPLC. […]

[2] = tested on: SREBP-2; assay: Immunoblot of nuclear SREBP-2 in CHO-7, S1P(1052) and S1P(983) cells; assay type: cell-based, hamster; details: CHO-7 cells
Method: FIGS. 20(A-C). […] FIG. 20A. […] FIG. 20B and FIG. 20C. […] FIG. 20B. […] FIG. 20C. […] Molecular mass standards are expressed in kDa.
The amount was increased when the cells were further deprived of sterols by treatment with compactin (FIG. 20C, lane 2). The band disappeared when the compactin-treated cells were incubated with sterols (FIG. 20C, lane 3). […] In the absence of sterols, nuclear SREBP-2 was found in both the S1P(1052) cells and the S1P(983) cells either in the absence or presence of compactin (FIG. 20C, lanes 7,8,10,11). In both cases nuclear SREBP-2 was abolished by addition of sterols (FIG. 20C, lanes 9 and 12). […] The bottom panel of FIG. 20C confirms that membranes from all of the cells contained the precursor form of SREBP-2.

[3] = tested on: S1P; assay: Immunoblot of processing of S1P to the B and C forms in transfected cells; details: S1P(1052) and S1P(983) cells, compactin plus or minus sterols
Source text: Sterol-regulated cleavage of SREBP-2 in SRD-12B cells expressing full-length or truncated S1P. […] SS denotes signal sequence; Pro denotes the propeptide region of S1P; TM denotes transmembrane domain; Ser414 is the active-site serine residue. […] On day 0, cells were set up for studies at a density of 1×10^6 cells/100-mm dish in medium B supplemented with 5% fetal calf serum. On day 2, the cells were switched to medium B containing 5% newborn calf lipoprotein-deficient serum and the indicated addition: none (FIG. 20B and FIG. 20C, lanes 1,4,7,10); 50 μM compactin and 50 μM mevalonate (FIG. 20B and FIG. 20C, lanes 2,5,8,11); 50 μM compactin, 50 μM mevalonate, and a mixture of 1 μg/ml 25-hydroxycholesterol plus 10 μg/ml cholesterol (FIG. 20B and FIG. 20C lanes 3,6,9,12). […] Aliquots of the 10^5 g membrane fraction (10 μg protein) were subjected to SDS-PAGE and immunoblotted with 0.5 μg/ml of anti-Myc monoclonal antibody 9E10. The filters were exposed to Kodak X-Omat Blue XB-1 film for 1 s at room temperature. […]
To quantify expression of the transfected S1P, the cells were homogenized, and a crude membrane pellet was subjected to SDS-PAGE and immunoblotted with an antibody against the Myc tag (FIG. 20B). […]

[4] = biological target: T2, Ac-SGSGRSVL-MCA (Artificial Sequence)
T2 sequence (peptide, N-terminal acetyl; C-terminal amide of 7-amino-4-methyl-coumarin (MCA)): SGSGRSVL

[5] = biological target: T3, Ac-VFRSLK-MCA (Artificial Sequence)
T3 sequence (peptide, N-terminal acetyl; C-terminal amide of 7-amino-4-methyl-coumarin (MCA)): VFRSLK

[6] = biological target: T4, Boc-RVRR-MCA (Artificial Sequence)
T4 sequence (peptide, N-terminal Boc; C-terminal amide of 7-amino-4-methyl-coumarin (MCA)): RVRR

[7] = biological target: T5, Ac-RSVL-MCA (Artificial Sequence)
T5 sequence (peptide, N-terminal acetyl; C-terminal amide of 7-amino-4-methyl-coumarin (MCA)): RSVL

[8] = biological target: T6, Ac-VFASLK-MCA (Artificial Sequence)
T6 sequence (peptide, N-terminal acetyl; C-terminal amide of 7-amino-4-methyl-coumarin (MCA)): VFASLK

[9] = biological target: T7, Ac-VFRSRR-MCA (Artificial Sequence)
T7 sequence (peptide, N-terminal acetyl; C-terminal amide of 7-amino-4-methyl-coumarin (MCA)): VFRSRR

[10] = biological target: T8, Ac-SGRSVL-MCA (Artificial Sequence)
T8 sequence (peptide, N-terminal acetyl; C-terminal amide of 7-amino-4-methyl-coumarin (MCA)): SGRSVL

[11] = biological target: T9, Ac-RSLK-MCA (Artificial Sequence)
T9 sequence (peptide, N-terminal acetyl; C-terminal amide of 7-amino-4-methyl-coumarin (MCA)): RSLK

[12] = biological target: T3, Ac-VFRSLK-MCA (Artificial Sequence); remark: listed apart in the source

Molecule: NH2 -His-Ser-Gly-Ser-Gly-Arg-Ser-Val-Leu-Ser-Phe-Glu-Ser-Gly-Ser-Gly-COOH (H-HSGSGRSVLSFESGSG-OH) [SEQ ID NO:55]
- cleavage of 16-residue peptide [1]: did cleave

Molecule: compactin
- nuclear SREBP-2 [2]: increased
- amounts of the different S1P bands [3]: not altered

B1: S1P(983)-C, purified secreted enzyme (enzyme)
chain: RAIPRQVAQTLQADVLWQMGYTGANVRVAVFDTGLSEKHPHFKNVKERTNWTNERTLDDGLGHGTFVAGVIASMRECQGFAPDAELHIFRVFTNNQVSYTSWFLDAFNYAILKKIDVLNLSIGGPDFMDHPFVDKVWELTANNVIMVSAIGNDGPLYGTLNNPADQMDVIGVGGIDFEDNIARFSSRGMTTWELPGGYGRVKPDIVTYGAGVRGSGVKGGCRALSGTSVASPVVAGAVTLLVSTVQKRELVNPASVKQALIASARRLPGVNMFEQGHGKLDLLRAYQILSSYKPQASLSPSYIDLTECPYMWPYCSQPIYYGGMPTIVNVTILNGMGVTGRIVDKPEWRPYLPQNGDNIEVAFSYSSVLWPWSGYLAISISVTKKAASWEGIAQGHIMITVASPAETEAKNGAEHTSTVKLPIKVKIIPTPPRSKRVLWDQYHNLRYPPGYFPRDNLRMKNDPLDWNGDHVHTNFRDMYQHLRSMGYFVEVLGAPFTCFDATQYGTLLMVDSEEEYFPEEIAKLRRDVDNGLSLVIFSDWYNTSVMRKVKFYDENTRQWWMPDTGGANIPALNELLSVWNMGFSDGLYEGEFALANHDMYYASGCSIAKFPEDGVVITQTFKDQGLEVLKQETAVVENVPILGLYQIPAEGGGRIVLYGDSNCLDDSHRQKDCFWLLDALLQYTSYGVNPPSLSHSGNRQRPPSGAGLAPPERMEGNHLHRYSKVLEAHLGDPKPRPLPACPHLSWAKPQPLNETAPSNLWKHQKLLSIDLDKVVLPNFRSNRPQVRPLSPGESGAWGGREQKLISEEDLGGEQKLISEEDLGPRFEQKLISEEDLDMHTGHHHHHH
- Relative Activity (cleavage of fluorogenic peptide-MCA, AMC liberated) (relative activity) [4]: < 0.1
- Relative Activity (cleavage of fluorogenic peptide-MCA, AMC liberated) (relative activity) [5]: 1
- Relative Activity (cleavage of fluorogenic peptide-MCA, AMC liberated) (relative activity) [6]: < 0.1
- Relative Activity (cleavage of fluorogenic peptide-MCA, AMC liberated) (relative activity) [7]: < 0.1
- Relative Activity (cleavage of fluorogenic peptide-MCA, AMC liberated) (relative activity) [8]: < 0.1
- Relative Activity (cleavage of fluorogenic peptide-MCA, AMC liberated) (relative activity) [9]: < 0.1
- Relative Activity (cleavage of fluorogenic peptide-MCA, AMC liberated) (relative activity) [10]: < 0.1
- Relative Activity (cleavage of fluorogenic peptide-MCA, AMC liberated) (relative activity) [11]: 0.47
- Kcat (cleavage of peptide-MCA) (mol/min/mol of enzyme) [12]: 0.16
- Km (Lineweaver-Burk plot, cleavage of peptide-MCA) [12]: 100 µM
- Vmax (Lineweaver-Burk plot, cleavage of peptide-MCA) (nmol/min/mg protein) [12]: 1.6
